Measurements as given in publication PMC7439702.

Biological target: AbmU (Streptomyces koyangensis SCSIO 5802)
Assay: crystal structure

stoichiometry N: 2
Substance: AbmU (enzyme)
